Source: patent US20120213785A1
Each block holds one molecule with its values, some of them ahead of it.

Assays:
[1] = molecular target: human Notch3 receptor, full-length (human) (UniProt Q9UM47); experiment: FACS on Sup-T1 cells naturally expressing Notch3
[2] = molecular target: Notch3-LD/Fc fusion protein (human Notch3 LIN12/dimerization domain fused to human gamma 1 Fc) (human) [IgG part: P01857]; experiment: ELISA, plate coated with Notch3-LD/Fc, hybridoma supernatant
[3] = molecular target: Notch3-LD/Fc fusion protein (human Notch3 LIN12/dimerization domain fused to human gamma 1 Fc) (human) [IgG part: P01857]; experiment: ELISA on Notch3-LD/Fc
[4] = molecular target: human Notch3 receptor, full-length (human) (UniProt Q9UM47); experiment: FACS on 293T cells expressing Notch3 (Notch3/Hyg)
[5] = molecular target: Notch3-D2/Fc (human) (UniProt Q9UM47); experiment: ELISA on Notch3-domain/Fc fusion proteins
[6] = molecular target: Notch3-D1/Fc (human) (UniProt Q9UM47); experiment: ELISA on Notch3-domain/Fc fusion proteins

Sequence of Notch3-LD/Fc fusion protein (human Notch3 LIN12/dimerization domain fused to human gamma 1 Fc) (human) [IgG part: P01857] (P01857 other isoform, or with tags, fused parts or gaps limits assumed): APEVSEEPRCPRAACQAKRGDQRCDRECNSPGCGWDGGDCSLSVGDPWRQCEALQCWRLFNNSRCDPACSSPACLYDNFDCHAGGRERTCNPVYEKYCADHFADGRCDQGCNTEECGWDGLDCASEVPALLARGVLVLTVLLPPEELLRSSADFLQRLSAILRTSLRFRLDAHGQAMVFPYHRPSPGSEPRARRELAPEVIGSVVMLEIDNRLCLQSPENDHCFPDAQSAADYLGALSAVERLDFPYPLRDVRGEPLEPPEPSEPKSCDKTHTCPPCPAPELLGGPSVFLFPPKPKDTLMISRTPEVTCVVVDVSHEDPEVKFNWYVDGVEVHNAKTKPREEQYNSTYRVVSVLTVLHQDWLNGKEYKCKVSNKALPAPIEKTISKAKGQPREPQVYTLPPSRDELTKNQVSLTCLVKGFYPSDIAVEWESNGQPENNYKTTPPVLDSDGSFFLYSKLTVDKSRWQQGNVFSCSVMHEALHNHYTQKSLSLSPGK
Sequence of human Notch3 receptor, full-length (human) (Q9UM47 40-2321 A2223V limits assumed): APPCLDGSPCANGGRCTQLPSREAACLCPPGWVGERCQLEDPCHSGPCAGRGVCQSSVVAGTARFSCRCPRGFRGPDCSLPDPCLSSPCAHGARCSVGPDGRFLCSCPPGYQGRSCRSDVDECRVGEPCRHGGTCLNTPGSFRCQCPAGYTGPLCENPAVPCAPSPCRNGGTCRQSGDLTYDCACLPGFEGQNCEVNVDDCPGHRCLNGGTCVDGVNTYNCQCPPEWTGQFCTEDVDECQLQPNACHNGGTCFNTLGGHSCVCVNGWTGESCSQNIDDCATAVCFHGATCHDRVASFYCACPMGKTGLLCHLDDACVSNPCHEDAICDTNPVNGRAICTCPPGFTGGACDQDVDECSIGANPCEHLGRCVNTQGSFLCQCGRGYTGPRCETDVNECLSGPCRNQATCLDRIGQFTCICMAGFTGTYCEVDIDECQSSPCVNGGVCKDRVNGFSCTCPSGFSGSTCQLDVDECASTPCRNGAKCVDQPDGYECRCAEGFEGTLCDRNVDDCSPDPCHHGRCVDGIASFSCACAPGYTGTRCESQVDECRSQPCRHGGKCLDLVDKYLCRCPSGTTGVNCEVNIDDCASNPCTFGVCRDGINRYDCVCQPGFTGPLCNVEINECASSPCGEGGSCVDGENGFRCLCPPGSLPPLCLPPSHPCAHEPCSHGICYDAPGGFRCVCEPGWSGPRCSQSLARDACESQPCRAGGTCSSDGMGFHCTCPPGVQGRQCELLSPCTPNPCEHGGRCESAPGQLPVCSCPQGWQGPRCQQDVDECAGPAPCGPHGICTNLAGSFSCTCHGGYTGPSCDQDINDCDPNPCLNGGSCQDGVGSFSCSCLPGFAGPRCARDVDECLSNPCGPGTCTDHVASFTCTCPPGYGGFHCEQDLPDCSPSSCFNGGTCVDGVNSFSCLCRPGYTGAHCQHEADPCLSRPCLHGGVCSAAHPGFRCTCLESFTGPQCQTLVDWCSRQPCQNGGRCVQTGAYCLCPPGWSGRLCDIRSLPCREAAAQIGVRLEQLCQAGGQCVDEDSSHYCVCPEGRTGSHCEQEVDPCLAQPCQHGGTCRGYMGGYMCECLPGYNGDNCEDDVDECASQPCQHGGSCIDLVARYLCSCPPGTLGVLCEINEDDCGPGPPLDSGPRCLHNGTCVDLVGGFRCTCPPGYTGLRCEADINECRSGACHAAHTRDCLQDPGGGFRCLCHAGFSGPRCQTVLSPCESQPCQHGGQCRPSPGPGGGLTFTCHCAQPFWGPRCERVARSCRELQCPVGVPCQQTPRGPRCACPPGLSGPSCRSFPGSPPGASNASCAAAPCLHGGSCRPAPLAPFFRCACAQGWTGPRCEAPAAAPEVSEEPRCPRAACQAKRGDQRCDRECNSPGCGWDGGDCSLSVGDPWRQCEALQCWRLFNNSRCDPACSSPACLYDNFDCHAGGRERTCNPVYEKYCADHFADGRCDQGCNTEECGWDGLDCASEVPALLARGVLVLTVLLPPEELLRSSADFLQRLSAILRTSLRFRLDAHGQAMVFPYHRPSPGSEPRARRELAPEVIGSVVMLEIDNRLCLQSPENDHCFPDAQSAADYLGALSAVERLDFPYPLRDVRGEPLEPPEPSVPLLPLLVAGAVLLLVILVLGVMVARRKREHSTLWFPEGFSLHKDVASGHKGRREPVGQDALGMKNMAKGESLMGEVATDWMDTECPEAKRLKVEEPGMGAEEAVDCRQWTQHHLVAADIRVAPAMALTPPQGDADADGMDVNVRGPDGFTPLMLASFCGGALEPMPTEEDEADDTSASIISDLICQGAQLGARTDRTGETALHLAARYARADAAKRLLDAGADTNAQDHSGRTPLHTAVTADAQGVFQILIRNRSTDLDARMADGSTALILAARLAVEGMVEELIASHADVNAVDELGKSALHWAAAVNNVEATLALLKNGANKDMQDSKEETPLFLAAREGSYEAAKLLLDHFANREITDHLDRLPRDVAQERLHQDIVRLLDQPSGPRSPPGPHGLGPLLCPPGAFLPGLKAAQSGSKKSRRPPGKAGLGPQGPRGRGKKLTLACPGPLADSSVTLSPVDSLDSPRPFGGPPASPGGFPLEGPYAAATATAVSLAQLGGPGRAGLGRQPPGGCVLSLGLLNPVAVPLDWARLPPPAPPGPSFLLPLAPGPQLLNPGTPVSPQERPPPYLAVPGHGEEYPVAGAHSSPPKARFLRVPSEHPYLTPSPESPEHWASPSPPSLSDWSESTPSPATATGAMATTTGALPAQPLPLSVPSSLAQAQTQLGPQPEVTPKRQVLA

- mean fluorescent intensity [1]: 24.5 MFI
- ELISA OD reading (mean) [2]: 0.019 OD (450 nm)
- ELISA OD reading (mean) [3]: 0.063 OD
- mean fluorescent intensity [4]: 24.2 MFI
Molecule: Control IgG1 MAb (antibody)

- ELISA OD reading [5]: 0.015 OD
- ELISA OD reading [6]: 0.015 OD
B1: anti-Notch3 monoclonal antibody MAb 256A-13 (antibody, IgG1, V domains shown)
VH: SQVQLQQSGAELAKPGTSVKMACKASGYTFTTHWMNWVKQRPGQGLEWIGTINPSNDFTDCNQKFKDKAILTADKSSSTAYMQLSSLTSEDSAIYYCASGLTARAWFAYWGQGTLVTVSAA
VL: RATISCRASQSVTTSNYSYMHWFQQKPGQPPKLLIKYASNLDSGVPARFSGSGSGTDFTLNIHPVEEEDTATFYCQHSWEIPYTFGGGTNLEIKRADAAPTV
